Results from doi:10.1101/2024.01.09.574928.
Read-outs that look alike come from different tables or passages of the source.

T1: SCAF4-CID (human, UniProt O95104 1-139)
T1 sequence: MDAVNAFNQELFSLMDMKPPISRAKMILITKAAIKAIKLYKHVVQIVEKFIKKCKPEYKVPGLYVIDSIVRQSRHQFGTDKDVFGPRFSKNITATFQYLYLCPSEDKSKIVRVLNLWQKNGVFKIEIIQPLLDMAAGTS

T2: SCAF8-CID (human, UniProt Q9UPN6 1-139)
T2 sequence: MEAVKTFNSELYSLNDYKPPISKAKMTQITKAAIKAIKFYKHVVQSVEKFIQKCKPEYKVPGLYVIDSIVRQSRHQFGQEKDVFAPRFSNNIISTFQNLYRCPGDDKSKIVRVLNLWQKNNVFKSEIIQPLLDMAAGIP

T3: SCAF4-CID R112A (human, UniProt O95104 1-139, R112A)
T3 sequence: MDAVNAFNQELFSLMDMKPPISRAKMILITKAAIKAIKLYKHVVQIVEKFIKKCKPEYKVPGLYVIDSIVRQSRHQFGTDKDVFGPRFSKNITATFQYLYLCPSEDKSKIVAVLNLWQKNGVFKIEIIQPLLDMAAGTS

T4: SCAF4-CID R71A (human, UniProt O95104 1-139, R71A)
T4 sequence: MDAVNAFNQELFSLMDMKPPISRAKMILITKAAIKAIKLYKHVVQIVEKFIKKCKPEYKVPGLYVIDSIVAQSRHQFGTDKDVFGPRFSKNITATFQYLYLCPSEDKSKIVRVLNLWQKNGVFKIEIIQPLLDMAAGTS

T5: SCAF4-CID R21A (human, UniProt O95104 1-139, R23A)
T5 sequence: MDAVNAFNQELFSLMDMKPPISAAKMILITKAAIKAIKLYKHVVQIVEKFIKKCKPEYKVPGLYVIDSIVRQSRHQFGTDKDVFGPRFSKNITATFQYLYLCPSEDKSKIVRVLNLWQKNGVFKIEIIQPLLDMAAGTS


Assays:
SCAF4-CID [1] = target: T1, SCAF4-CID; assay: competition FP
SCAF4-CID [2] = target: T1, SCAF4-CID; assay: SPR
SCAF8-CID [3] = target: T2, SCAF8-CID; assay: SPR
SCAF8-CID [4] = target: T2, SCAF8-CID; assay: competition FP
WDR5 L240K = WDR5 L240K (UniProt P61964 22-334, L240K); assay: fluorescence polarization
WDR5 [5] = target: T6, WDR5 (UniProt P61964 22-334); assay: fluorescence polarization
WDR5 [6] = target: T6, WDR5; assay: SPR
WDR5 [7] = target: T6, WDR5; assay: competition FP
SCAF8-CID [8] = target: T2, SCAF8-CID; assay: competition FP; remark: listed apart in the source
SCAF4-CID [9] = target: T1, SCAF4-CID; assay: competition FP; remark: listed apart in the source
SCAF8-CID [10] = target: T2, SCAF8-CID; assay: SPR; remark: listed apart in the source
SCAF4-CID R112A = target: T3, SCAF4-CID R112A; assay: fluorescence polarization
SCAF4-CID R71A = target: T4, SCAF4-CID R71A; assay: fluorescence polarization
SCAF4-CID [11] = target: T1, SCAF4-CID; assay: fluorescence polarization
SCAF4-CID R21A = target: T5, SCAF4-CID R21A; assay: fluorescence polarization

Binder | IC50 (SCAF4-CID [1]) [nM] | Kd (SCAF4-CID [2]) [nM] | IC50 (SCAF8-CID [4]) [nM] | Kd (SCAF8-CID [10]) [nM] | also measured
TGGTGGGA (ssDNA) [D1_8nt] | 1270 ± 864 |  |  |  | 
GGGTGGGA (ssDNA) [F1_8nt] | 554 ± 106 | 88.6 ± 15.1 |  |  | 
GGGGTGGGGAG (ssDNA) [SRiApt-1 (SCAF4_F3_11nt)] | 832 ± 303 | 58.4 ± 5.8 | 1500 ± 690 |  | Kd (SCAF8-CID [3]): 56.3 ± 7.42 nM
AGGTGGGT (ssDNA) [B2_8nt] | 1280 ± 742 | 297 ± 48.1 |  |  | 
GGGGGCTGGACCCCTCAACT (structured_DNA) [WMiApt-1] |  |  |  |  | binding result (WDR5 L240K): binds; Kd (WDR5 [5]): 797 ± 95.2 nM; Kd (WDR5 [6]): 138 ± 86.7 nM; IC50 (WDR5 [7]): 431 ± 134 nM
GTGGG (ssDNA) [SCAF4_LS (D2_5nt)] |  | 140 ± 40.1 |  | 76.4 ± 7.33 | IC50 (SCAF8-CID [8]): 1960 ± 240 nM; IC50 (SCAF4-CID [9]): 2750 ± 682 nM; Kd (SCAF4-CID R112A): 672 ± 171 nM; Kd (SCAF4-CID R71A): 786 ± 491 nM; Kd (SCAF4-CID [11]): 189 ± 40.1 nM; Kd (SCAF4-CID R21A): 416 ± 39.5 nM
GGACCGGACC (ssDNA) [bivalent WDR5 lead] |  |  |  |  | IC50 (WDR5 [7]): 8500 ± 4250 nM
TTAAAGGGGTGGGGAGTCAT (ssDNA) [SRiApt-3] | 285 ± 26.6 | 22.7 ± 1 | 291 ± 19.7 | 69.9 ± 14 | 
CAGGTGGGTTC (ssDNA) [SRiApt-2 (F7_11nt_B)] | 400 ± 143 | 73.8 ± 30.8 | 2690 ± 1430 | 90.5 ± 25.8 | 
